{"source": "the Immune Epitope Database (IEDB)", "key": {"HLA-A*01:01": {"molecular_target": "HLA-A*01:01", "test": "IEDB peptide-MHC binding, purified MHC/direct/fluorescence; filed as Kd, often an IC50 or EC50 that approximates it; ≥ and ≤ were set here for values at or beyond the usual limits of such assays", "details": "source organism: Vibrio vulnificus"}, "HLA-A*02:01 [1]": {"molecular_target": "HLA-A*02:01", "test": "IEDB peptide-MHC binding, purified MHC/direct/fluorescence; filed as Kd, often an IC50 or EC50 that approximates it; ≥ and ≤ were set here for values at or beyond the usual limits of such assays", "details": "source organism: Vibrio vulnificus"}, "HLA-A*03:01 [2]": {"molecular_target": "HLA-A*03:01", "test": "IEDB peptide-MHC binding, purified MHC/direct/fluorescence; filed as Kd, often an IC50 or EC50 that approximates it; ≥ and ≤ were set here for values at or beyond the usual limits of such assays", "details": "source organism: Vibrio vulnificus"}, "HLA-A*11:01": {"molecular_target": "HLA-A*11:01", "test": "IEDB peptide-MHC binding, purified MHC/direct/fluorescence; filed as Kd, often an IC50 or EC50 that approximates it; ≥ and ≤ were set here for values at or beyond the usual limits of such assays", "details": "source organism: Vibrio vulnificus"}, "HLA-A*26:01 [3]": {"molecular_target": "HLA-A*26:01", "test": "IEDB peptide-MHC binding, purified MHC/direct/fluorescence; filed as Kd, often an IC50 or EC50 that approximates it; ≥ and ≤ were set here for values at or beyond the usual limits of such assays", "details": "source organism: Vibrio vulnificus"}, "HLA-A*30:01": {"molecular_target": "HLA-A*30:01", "test": "IEDB peptide-MHC binding, purified MHC/direct/fluorescence; filed as Kd, often an IC50 or EC50 that approximates it; ≥ and ≤ were set here for values at or beyond the usual limits of such assays", "details": "source organism: Vibrio vulnificus"}, "HLA-A*31:01": {"molecular_target": "HLA-A*31:01", "test": "IEDB peptide-MHC binding, purified MHC/direct/fluorescence; filed as Kd, often an IC50 or EC50 that approximates it; ≥ and ≤ were set here for values at or beyond the usual limits of such assays", "details": "source organism: Vibrio vulnificus"}, "HLA-A*69:01 [4]": {"molecular_target": "HLA-A*69:01", "test": "IEDB peptide-MHC binding, purified MHC/direct/fluorescence; filed as Kd, often an IC50 or EC50 that approximates it; ≥ and ≤ were set here for values at or beyond the usual limits of such assays", "details": "source organism: Vibrio vulnificus"}, "HLA-B*07:02": {"molecular_target": "HLA-B*07:02", "test": "IEDB peptide-MHC binding, purified MHC/direct/fluorescence; filed as Kd, often an IC50 or EC50 that approximates it; ≥ and ≤ were set here for values at or beyond the usual limits of such assays", "details": "source organism: Vibrio vulnificus"}, "HLA-B*08:01": {"molecular_target": "HLA-B*08:01", "test": "IEDB peptide-MHC binding, purified MHC/direct/fluorescence; filed as Kd, often an IC50 or EC50 that approximates it; ≥ and ≤ were set here for values at or beyond the usual limits of such assays", "details": "source organism: Vibrio vulnificus"}, "HLA-B*27:05": {"molecular_target": "HLA-B*27:05", "test": "IEDB peptide-MHC binding, purified MHC/direct/fluorescence; filed as Kd, often an IC50 or EC50 that approximates it; ≥ and ≤ were set here for values at or beyond the usual limits of such assays", "details": "source organism: Vibrio vulnificus"}, "HLA-B*40:01": {"molecular_target": "HLA-B*40:01", "test": "IEDB peptide-MHC binding, purified MHC/direct/fluorescence; filed as Kd, often an IC50 or EC50 that approximates it; ≥ and ≤ were set here for values at or beyond the usual limits of such assays", "details": "source organism: Vibrio vulnificus"}, "HLA-B*44:02": {"molecular_target": "HLA-B*44:02", "test": "IEDB peptide-MHC binding, purified MHC/direct/fluorescence; filed as Kd, often an IC50 or EC50 that approximates it; ≥ and ≤ were set here for values at or beyond the usual limits of such assays", "details": "source organism: Vibrio vulnificus"}, "HLA-B*58:01": {"molecular_target": "HLA-B*58:01", "test": "IEDB peptide-MHC binding, purified MHC/direct/fluorescence; filed as Kd, often an IC50 or EC50 that approximates it; ≥ and ≤ were set here for values at or beyond the usual limits of such assays", "details": "source organism: Vibrio vulnificus"}, "HLA-A*02:01 [5]": {"molecular_target": "HLA-A*02:01", "test": "IEDB peptide-MHC binding, purified MHC/competitive/fluorescence; filed as Kd, often an IC50 or EC50 that approximates it; ≥ and ≤ were set here for values at or beyond the usual limits of such assays", "details": "source organism: Streptococcus pneumoniae TIGR4"}, "HLA-A*03:01 [6]": {"molecular_target": "HLA-A*03:01", "test": "IEDB peptide-MHC binding, purified MHC/competitive/fluorescence; filed as Kd, often an IC50 or EC50 that approximates it; ≥ and ≤ were set here for values at or beyond the usual limits of such assays", "details": "source organism: Streptococcus pneumoniae TIGR4"}, "HLA-A*23:01": {"molecular_target": "HLA-A*23:01", "test": "IEDB peptide-MHC binding, purified MHC/competitive/fluorescence; filed as Kd, often an IC50 or EC50 that approximates it; ≥ and ≤ were set here for values at or beyond the usual limits of such assays", "details": "source organism: Streptococcus pneumoniae TIGR4"}, "HLA-A*24:03": {"molecular_target": "HLA-A*24:03", "test": "IEDB peptide-MHC binding, purified MHC/competitive/fluorescence; filed as Kd, often an IC50 or EC50 that approximates it; ≥ and ≤ were set here for values at or beyond the usual limits of such assays", "details": "source organism: Streptococcus pneumoniae TIGR4"}, "HLA-A*26:01 [7]": {"molecular_target": "HLA-A*26:01", "test": "IEDB peptide-MHC binding, purified MHC/competitive/fluorescence; filed as Kd, often an IC50 or EC50 that approximates it; ≥ and ≤ were set here for values at or beyond the usual limits of such assays", "details": "source organism: Streptococcus pneumoniae TIGR4"}, "HLA-A*29:02": {"molecular_target": "HLA-A*29:02", "test": "IEDB peptide-MHC binding, purified MHC/competitive/fluorescence; filed as Kd, often an IC50 or EC50 that approximates it; ≥ and ≤ were set here for values at or beyond the usual limits of such assays", "details": "source organism: Streptococcus pneumoniae TIGR4"}, "HLA-A*68:02": {"molecular_target": "HLA-A*68:02", "test": "IEDB peptide-MHC binding, purified MHC/competitive/fluorescence; filed as Kd, often an IC50 or EC50 that approximates it; ≥ and ≤ were set here for values at or beyond the usual limits of such assays", "details": "source organism: Streptococcus pneumoniae TIGR4"}, "HLA-A*69:01 [8]": {"molecular_target": "HLA-A*69:01", "test": "IEDB peptide-MHC binding, purified MHC/competitive/fluorescence; filed as Kd, often an IC50 or EC50 that approximates it; ≥ and ≤ were set here for values at or beyond the usual limits of such assays", "details": "source organism: Streptococcus pneumoniae TIGR4"}, "HLA-B*15:17": {"molecular_target": "HLA-B*15:17", "test": "IEDB peptide-MHC binding, purified MHC/competitive/fluorescence; filed as Kd, often an IC50 or EC50 that approximates it; ≥ and ≤ were set here for values at or beyond the usual limits of such assays", "details": "source organism: Streptococcus pneumoniae TIGR4"}, "HLA-B*18:01": {"molecular_target": "HLA-B*18:01", "test": "IEDB peptide-MHC binding, purified MHC/competitive/fluorescence; filed as Kd, often an IC50 or EC50 that approximates it; ≥ and ≤ were set here for values at or beyond the usual limits of such assays", "details": "source organism: Streptococcus pneumoniae TIGR4"}, "HLA-B*27:03": {"molecular_target": "HLA-B*27:03", "test": "IEDB peptide-MHC binding, purified MHC/competitive/fluorescence; filed as Kd, often an IC50 or EC50 that approximates it; ≥ and ≤ were set here for values at or beyond the usual limits of such assays", "details": "source organism: Streptococcus pneumoniae TIGR4"}, "HLA-B*46:01": {"molecular_target": "HLA-B*46:01", "test": "IEDB peptide-MHC binding, purified MHC/competitive/fluorescence; filed as Kd, often an IC50 or EC50 that approximates it; ≥ and ≤ were set here for values at or beyond the usual limits of such assays", "details": "source organism: Streptococcus pneumoniae TIGR4"}, "HLA-B*51:01": {"molecular_target": "HLA-B*51:01", "test": "IEDB peptide-MHC binding, purified MHC/competitive/fluorescence; filed as Kd, often an IC50 or EC50 that approximates it; ≥ and ≤ were set here for values at or beyond the usual limits of such assays", "details": "source organism: Streptococcus pneumoniae TIGR4"}, "HLA-B*57:01": {"molecular_target": "HLA-B*57:01", "test": "IEDB peptide-MHC binding, purified MHC/competitive/fluorescence; filed as Kd, often an IC50 or EC50 that approximates it; ≥ and ≤ were set here for values at or beyond the usual limits of such assays", "details": "source organism: Streptococcus pneumoniae TIGR4"}}, "data": [{"sequence": "QKDINTPGY", "values": [{"measurement": "Kd", "setting": "HLA-A*01:01", "result": "≥ 20", "unit": "µM"}, {"measurement": "Kd", "setting": "HLA-A*02:01 [1]", "result": 15.5, "unit": "µM"}, {"measurement": "Kd", "setting": "HLA-A*03:01 [2]", "result": "≥ 20", "unit": "µM"}, {"measurement": "Kd", "setting": "HLA-A*11:01", "result": "≥ 20", "unit": "µM"}, {"measurement": "Kd", "setting": "HLA-A*26:01 [3]", "result": "≥ 20", "unit": "µM"}, {"measurement": "Kd", "setting": "HLA-A*30:01", "result": 9.37, "unit": "µM"}, {"measurement": "Kd", "setting": "HLA-A*31:01", "result": "≥ 20", "unit": "µM"}, {"measurement": "Kd", "setting": "HLA-A*69:01 [4]", "result": "≥ 20", "unit": "µM"}, {"measurement": "Kd", "setting": "HLA-B*07:02", "result": "≥ 20", "unit": "µM"}, {"measurement": "Kd", "setting": "HLA-B*08:01", "result": "≥ 20", "unit": "µM"}, {"measurement": "Kd", "setting": "HLA-B*27:05", "result": "≥ 20", "unit": "µM"}, {"measurement": "Kd", "setting": "HLA-B*40:01", "result": "≥ 20", "unit": "µM"}, {"measurement": "Kd", "setting": "HLA-B*44:02", "result": "≥ 20", "unit": "µM"}, {"measurement": "Kd", "setting": "HLA-B*58:01", "result": "≥ 20", "unit": "µM"}]}, {"sequence": "YQVEGATRV", "values": [{"measurement": "Kd", "setting": "HLA-A*02:01 [5]", "result": 1.7, "unit": "nM"}, {"measurement": "Kd", "setting": "HLA-A*03:01 [6]", "result": "≥ 20", "unit": "µM"}, {"measurement": "Kd", "setting": "HLA-A*23:01", "result": "≥ 20", "unit": "µM"}, {"measurement": "Kd", "setting": "HLA-A*24:03", "result": "≥ 20", "unit": "µM"}, {"measurement": "Kd", "setting": "HLA-A*26:01 [7]", "result": "≥ 20", "unit": "µM"}, {"measurement": "Kd", "setting": "HLA-A*29:02", "result": "≥ 20", "unit": "µM"}, {"measurement": "Kd", "setting": "HLA-A*68:02", "result": "≥ 20", "unit": "µM"}, {"measurement": "Kd", "setting": "HLA-A*69:01 [8]", "result": "≥ 20", "unit": "µM"}, {"measurement": "Kd", "setting": "HLA-B*15:17", "result": "≥ 20", "unit": "µM"}, {"measurement": "Kd", "setting": "HLA-B*18:01", "result": "≥ 20", "unit": "µM"}, {"measurement": "Kd", "setting": "HLA-B*27:03", "result": "≥ 20", "unit": "µM"}, {"measurement": "Kd", "setting": "HLA-B*46:01", "result": "≥ 20", "unit": "µM"}, {"measurement": "Kd", "setting": "HLA-B*51:01", "result": "≥ 20", "unit": "µM"}, {"measurement": "Kd", "setting": "HLA-B*57:01", "result": "≥ 20", "unit": "µM"}]}]}
